Measurements from patent US20190345557.
Numbering of substitutions follows the chain as printed.

B1: Human full-length ARHGEF26 (wild-type) with N-terminal His-SUMO tag (protein)
chain: MDGESEVDFSSNSITPLWRRRSIPQPHQVLGRSKPRPQSYQSPNGLLITDFPVEDGGTLLAAQIPAQVPTASDSRTVHRSPLLLGAQRRAVANGGTASPEYRAASPRLRRPKSPKLPKAVPGGSPKSPANGAVTLPAPPPPPVLRPPRTPNAPAPCTPEEDLTGLTASPVPSPTANGLAANNDSPGSGSQSGRKAKDPERGLFPGPQKSSSEQKLPLQRLPSQENELLENPSVVLSTNSPAALKVGKQQIIPKSLASEIKISKSNNQNVEPHKRLLKVRSMVEGLGGPLGHAGEESEVDNDVDSPGSLRRGLRSTSYRRAVVSGFDFDSPTSSKKKNRMSQPVLKVVMEDKEKFSSLGRIKKKMLKGQGTFDGEENAVLYQNYKEKALDIDSDEESEPKEQKSDEKIVIHHKPLRSTWSQLSAVKRKGLSQTVSQEERKRQEAIFEVISSEHSYLLSLEILIRMFKNSKELSDTMTKTERHHLFSNITDVCEASKKFFIELEARHQNNIFIDDISDIVEKHTASTFDPYVKYCTNEVYQQRTLQKLLATNPSFKEVLSRIESHEDCRNLPMISFLILPMQRVTRLPLLMDTICQKTPKDSPKYEVCKRALKEVSKLVRLCNEGARKMERTEMMYTINSQLEFKIKPFPLVSSSRWLVKRGELTAYVEDTVLFSRRTSKQQVYFFLFNDVLIITKKKSEESYNVNDYSLRDQLLVESCDNEELNSSPGKNSSTMLYSRQSSASHLFTLTVLSNHANEKVEMLLGAETQSERARWITALGHSSGKPPADRTSLTQVEIVRSFTAKQPDELSLQVADVVLIYQRVSDGWYEGERLRDGERGWFPMECAKEITCQATIDKNVERMGRLLGLETNV
B2: Human full-length ARHGEF26 29Leu mutant (p.Val29Leu) with N-terminal His-SUMO tag (protein)
chain: B1 chain with V29L

Target: Human RhoG (residues 1-188) with N-terminal His-SUMO tag, pre-loaded with GDP, P84095
Sequence (P84095 1-188): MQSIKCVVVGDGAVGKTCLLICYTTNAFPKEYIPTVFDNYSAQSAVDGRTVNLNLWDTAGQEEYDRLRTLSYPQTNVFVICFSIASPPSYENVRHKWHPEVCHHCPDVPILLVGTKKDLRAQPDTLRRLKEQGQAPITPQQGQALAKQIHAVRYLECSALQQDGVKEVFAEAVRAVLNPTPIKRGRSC

Protein	nucleotide exchange activity (GTP-GDP nucleotide exchange assay, MANT-GTP fluorescence, 60 minutes)
B1	we observed no significant difference in nucleotide exchange activity between wild-type and 29Leu mutant ARHGEF26
B2	we observed no significant difference in nucleotide exchange activity between wild-type and 29Leu mutant ARHGEF26
